Consider two substances from PMC12095075.

The target of this data set is HIF2A N-terminal region (bHLH-PAS);BMAL1 N-terminal region (bHLH-PAS) (mouse;mouse) (UniProt P97481+Q9WTL8). In words: SPR. Conditions: 1:1 fit, error is fit error, SPR: 20 mM MES pH 5.5, 300 mM NaCl, 0.05% Tween-20, 0.02% BSA, EMSA: 10 mM MES pH 6.0, 50 mM KCl, 1 mM DTT, 2.5% glycerol, 0.05% NP-40, 5 mM MgCl2, room …. On the technique in general: In EMSA bound probe runs differently from free probe, usually more slowly.
Sequence of HIF2A N-terminal region (bHLH-PAS);BMAL1 N-terminal region (bHLH-PAS) (mouse;mouse) (P97481 3-361, chain 1 of 2): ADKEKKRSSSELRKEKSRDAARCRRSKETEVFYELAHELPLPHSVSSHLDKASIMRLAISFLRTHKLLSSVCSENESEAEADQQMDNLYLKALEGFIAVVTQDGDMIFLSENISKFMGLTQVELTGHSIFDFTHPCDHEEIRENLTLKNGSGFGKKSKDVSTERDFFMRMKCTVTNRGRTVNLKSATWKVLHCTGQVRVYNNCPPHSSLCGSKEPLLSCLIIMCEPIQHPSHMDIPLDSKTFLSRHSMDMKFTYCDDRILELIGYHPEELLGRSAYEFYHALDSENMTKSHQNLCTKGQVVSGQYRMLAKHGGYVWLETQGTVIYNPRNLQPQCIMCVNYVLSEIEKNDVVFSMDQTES
Sequence of HIF2A N-terminal region (bHLH-PAS);BMAL1 N-terminal region (bHLH-PAS) (mouse;mouse) (Q9WTL8 68-488, chain 2 of 2): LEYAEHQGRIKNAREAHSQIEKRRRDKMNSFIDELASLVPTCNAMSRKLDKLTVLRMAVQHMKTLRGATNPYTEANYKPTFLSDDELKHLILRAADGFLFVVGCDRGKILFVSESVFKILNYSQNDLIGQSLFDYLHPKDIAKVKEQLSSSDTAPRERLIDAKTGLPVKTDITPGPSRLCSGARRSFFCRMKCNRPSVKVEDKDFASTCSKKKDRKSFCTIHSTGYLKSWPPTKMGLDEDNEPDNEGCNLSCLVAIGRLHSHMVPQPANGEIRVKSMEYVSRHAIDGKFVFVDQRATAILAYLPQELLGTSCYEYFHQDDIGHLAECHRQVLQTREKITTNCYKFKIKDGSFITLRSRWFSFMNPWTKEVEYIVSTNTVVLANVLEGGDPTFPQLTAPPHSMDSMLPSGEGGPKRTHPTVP

The substance 22-bp E-box duplex, SPR registered a Kd (ka 2.10e5 1/(M*s), kd 7.85e-4 1/s) of 3.74 nM.

With 22-bp HRE duplex, SPR, the Kd (ka 1.75e5 1/(M*s), kd 8.45e-4 1/s) is 4.84 nM.

In general, Kd refers to the concentration at which binding is half-saturated. A higher Kd goes with lower affinity.
